Patent US7919091B2, “Lipolysis stimulated receptor (LSR) specific antibodies” (Serono Genetics Institute S.A., priority 1997, dated 2011)

How the values were obtained:
[1] = Postprandial lipemic response in mice after a high-fat meal; type: in vivo; conditions: ob/ob mice, 2.5 mg lactoferrin with 0.5 μg leptin i.v.
Description: Control, ob/ob and db/db mice, starved since the day before, are force-fed with a meal which is very high in fat [60% fat (37% saturated, 27% monounsaturated and 36% polyunsaturated fatty acids), 20% protein and 20% carbohydrate] providing 56 kcal of energy/kg of the weight of the animal. Immediately after the meal (time=0 hour), the mice are injected intravenously with 200 μl of physiological saline solution. At various times, 20 μl of blood are collected via the caudal vein in tubes containing 90 μg of disodium EDTA, and after separating the plasma by centrifugation, the plasma concentration of triglyceridemia is determined with the aid of an enzymatic assay kit. Each point on the curves presented corresponds to the mean with standard deviation obtained for 3 measurements per animal and for 3 different animals.
The procedure is the same as above, except that immediately after the meal (time=0 hour), the mice are injected intravenously with either 200 μl of physiological saline solution, or 200 μl of the same solution containing 50 μg of murine recombinant leptin.
ob/ob mice, starved since the day before, are force-fed with a meal identical to that described above. […] Blood is collected between 2 and 3 hours after the meal and the plasma concentration of triglycerides (TG) is measured. […]

[2] = Food intake in ob/ob and db/db mice under AdipoQ; type: in vivo; conditions: ob/ob and db/db obese mice, 100 μg daily for 5 days
Description: Recombinant AdipoQ protein (100 μg) or PBS alone were injected daily for 5 days through the caudal vein of ob/ob or db/db mice kept in a metabolic cage. The mice are weighed each day and the quantity of food consumed was also measured. The results correspond to a mean food intake and a standard deviation for 4 mice in each group.

[3] = Change in weight and plasma triglycerides in rats under AdipoQ infusion; type: in vivo, rat; conditions: 3-day ip infusion
Description: Osmotic pumps were surgically inserted into the abdominal cavities of 12 Sprague-Dawley male rats of 400-450 g. The osmotic pumps contained either 2 ml of PBS (phosphate buffered saline), pH 7.4 (control 6 rats), or 2 ml of recombinant AdipoQ protein (5 mg/ml PBS, 6 rats). These pumps were designed to deliver 10 μl/h (50 μg AdipoQ/h). The animals are weighed and individually housed in metabolic cages. 3 animals in each group are subjected ad libitum either to a normal diet or to a fatty diet (day 0). The fatty diet consists of a normal diet supplemented with 2% (w/w) cholesterol, 10% (w/w) saturated fatty acid in the form of vegetaline, [lacuna] % (w/w) sunflower oil and 15% (w/w) sucrose. On day 3, the animals are weighed and blood samples are obtained from the caudal vein. The quantity of plasma triglycerides was measured using an enzymatic kit.

LSR = target: T1, LSR (Rattus norvegicus, UniProt Q9WU74); experiment: Effect of AdipoQ on LSR activity in primary culture of rat hepatocytes; type: cell-based; conditions: 25 ng/ml AdipoQ, in the presence of oleate
T1 construct: from tissue; host or cells: rat liver plasma membranes / solubilized rat liver membrane proteins
T1 sequence (Q9WU74 36-593): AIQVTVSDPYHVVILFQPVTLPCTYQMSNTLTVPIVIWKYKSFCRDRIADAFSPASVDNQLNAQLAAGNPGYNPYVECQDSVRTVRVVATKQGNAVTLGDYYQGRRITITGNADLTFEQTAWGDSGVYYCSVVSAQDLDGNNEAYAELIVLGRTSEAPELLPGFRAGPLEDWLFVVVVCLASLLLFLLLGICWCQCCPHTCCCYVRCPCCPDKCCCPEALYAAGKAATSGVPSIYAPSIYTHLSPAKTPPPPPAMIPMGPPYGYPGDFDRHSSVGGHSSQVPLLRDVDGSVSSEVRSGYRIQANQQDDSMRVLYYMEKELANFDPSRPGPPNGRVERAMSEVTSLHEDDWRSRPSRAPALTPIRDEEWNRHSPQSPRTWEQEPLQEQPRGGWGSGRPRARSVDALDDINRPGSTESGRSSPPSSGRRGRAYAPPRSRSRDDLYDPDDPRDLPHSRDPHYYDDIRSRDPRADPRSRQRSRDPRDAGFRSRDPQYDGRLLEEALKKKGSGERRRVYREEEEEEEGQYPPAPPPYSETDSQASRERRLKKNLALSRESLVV
T1 sequence (Q9WU74 36-525 isoform Q9WU74-3 limits assumed): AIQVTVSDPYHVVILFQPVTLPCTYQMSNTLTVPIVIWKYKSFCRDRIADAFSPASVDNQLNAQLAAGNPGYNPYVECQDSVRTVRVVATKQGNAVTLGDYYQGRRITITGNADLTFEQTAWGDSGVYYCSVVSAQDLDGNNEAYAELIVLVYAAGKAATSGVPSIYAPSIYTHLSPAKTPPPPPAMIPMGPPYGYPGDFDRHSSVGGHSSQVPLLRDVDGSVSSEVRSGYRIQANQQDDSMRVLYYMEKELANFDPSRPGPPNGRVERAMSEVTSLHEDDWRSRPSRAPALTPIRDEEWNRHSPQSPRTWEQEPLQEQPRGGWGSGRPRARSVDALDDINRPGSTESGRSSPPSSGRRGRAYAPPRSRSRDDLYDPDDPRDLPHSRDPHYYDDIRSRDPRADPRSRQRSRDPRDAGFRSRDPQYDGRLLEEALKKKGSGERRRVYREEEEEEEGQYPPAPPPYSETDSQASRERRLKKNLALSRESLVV
Description: Primary cultures of rat hepatocytes were prepared and distributed into 6-well plates (9000,000 cells/well). After 48 h, the cells were washed once with PBS (2 ml/well) and incubated for 30 min at 37° C. with 20 ng/ml of recombinant murine leptin. The cells were then incubated for 4 h at 37° C. with increasing concentrations of recombinant murine AdipoQ proteins and 20 μg/ml ^125I-LDL in the presence or in the absence of 0.5 mM oleate. The binding, internalization and degradation of lipoproteins were measured as indicated in Example 1.

[4] = Postprandial lipemic response in rats after AdipoQ injection; type: in vivo, rat; conditions: high-fat meal, 1 mg AdipoQ i.v.
Description: Male Sprague-Dawley rats (400-450 g), starved since the day before, were force-fed with a meal which was very high in fat (t=0) (60% fatty acid of which 37% saturated, 27% monounsaturated and 36% polyunsaturated, 20% protein and 20% carbohydrate, the total providing 56 kcal/kg of body weight) and received immediately afterwards an intravenous injection (femoral vein) of either 300 μl of PBS alone or of the same volume containing 1 mg of mouse recombinant AdipoQ protein. Blood samples were collected at various times (0, 2, 4 and 6 h). The quantity of plasma triglycerides was measured using an enzymatic kit. The results are presented as mean values and standard deviations on 3 animals.

B1: lactoferrin: human lactoferrin (Serva), blocks the activity of LSR (protein, UniProt P02788 20-710, looked up)
Lactotransferrin: GRRRSVQWCAVSQPEATKCFQWQRNMRKVRGPPVSCIKRDSPIQCIQAIAENRADAVTLDGGFIYEAGLAPYKLRPVAAEVYGTERQPRTHYYAVAVVKKGGSFQLNELQGLKSCHTGLRRTAGWNVPIGTLRPFLNWTGPPEPIEAAVARFFSASCVPGADKGQFPNLCRLCAGTGENKCAFSSQEPYFSYSGAFKCLRDGAGDVAFIRESTVFEDLSDEAERDEYELLCPDNTRKPVDKFKDCHLARVPSHAVVARSVNGKEDAIWNLLRQAQEKFGKDKSPKFQLFGSPSGQKDLLFKDSAIGFSRVPPRIDSGLYLGSGYFTAIQNLRKSEEEVAARRARVVWCAVGEQELRKCNQWSGLSEGSVTCSSASTTEDCIALVLKGEADAMSLDGGYVYTAGKCGLVPVLAENYKSQQSSDPDPNCVDRPVEGYLAVAVVRRSDTSLTWNSVKGKKSCHTAVDRTAGWNIPMGLLFNQTGSCKFDEYFSQSCAPGSDPRSNLCALCIGDEQGENKCVPNSNERYYGYTGAFRCLAENAGDVAFVKDVTVLQNTDGNNNEAWAKDLKLADFALLCLDGKRKPVTEARSCHLAMAPNHAVVSRMDKVERLKQVLLHQQAKFGRNGSDCPDKFCLFQSETKNLLFNDNTECLARLHGKTTYEKYLGPQYVAGITNLKKCSTSPLLEACEFLRK
In the case of B1, the “reduction in the lipemic response induced by leptin” value [1] is reported as “suppressed”.

B2: AdipoQ: mouse recombinant AdipoQ protein with hexahistidine peptide, expressed in E. coli; homologue of complement C1q (protein)
chain: SHAEDDVTTTEELAPALVPPPKGTCAGWMAGIPGHPGHNGTPGRDGRDGTPGEKGEKGDAGLLGPKGETGDVGMTGAEGPRGFPGTPGRKGEPGEAAYVYRSAFSVGLETRVTVPNVPIRFTKIFYNQQNHYDGSTGKFYCNIPGLYYFSYHITVYMKDVKVSLFKKDKAVLFTYDQYQEKNVDQASGSVLLHLEVGDQVWLQVYGDGDHNGLYADNVNDSTFTGFLLYHDTN
modifications: left off: small tags and cut ends
notes: mouse recombinant AdipoQ protein with hexahistidine peptide, expressed in E. coli; homologue of complement C1q
For B2, the food intake [2] was “reduces”, the “level of plasma triglycerides” value [3] was “reduced” and the weight ([3]; normal or fatty diet) was “loss in weight”. For the same molecule, the LSR activity (LSR) was “increases” and the postprandial lipemic response [4] was “massively reduce”.
